Measured values published in US20260028422A1 (CONCEPT TO MEDICINE BIOTECH, published 2026).
Where two headings read alike, the source gives them in different places. One block for each binder: values may come before it.

Legend:
[1] = molecular target: T1, human MerTK expressed on cells (human, UniProt Q12866 21-999); assay: FACS on CHO-K1 cells overexpressing human MerTK, MFI (PE)
T1 construct: whole, on cells; also called CHO-K1-hMerTK; CHO-K1-MerTK
T1 sequence (looked up): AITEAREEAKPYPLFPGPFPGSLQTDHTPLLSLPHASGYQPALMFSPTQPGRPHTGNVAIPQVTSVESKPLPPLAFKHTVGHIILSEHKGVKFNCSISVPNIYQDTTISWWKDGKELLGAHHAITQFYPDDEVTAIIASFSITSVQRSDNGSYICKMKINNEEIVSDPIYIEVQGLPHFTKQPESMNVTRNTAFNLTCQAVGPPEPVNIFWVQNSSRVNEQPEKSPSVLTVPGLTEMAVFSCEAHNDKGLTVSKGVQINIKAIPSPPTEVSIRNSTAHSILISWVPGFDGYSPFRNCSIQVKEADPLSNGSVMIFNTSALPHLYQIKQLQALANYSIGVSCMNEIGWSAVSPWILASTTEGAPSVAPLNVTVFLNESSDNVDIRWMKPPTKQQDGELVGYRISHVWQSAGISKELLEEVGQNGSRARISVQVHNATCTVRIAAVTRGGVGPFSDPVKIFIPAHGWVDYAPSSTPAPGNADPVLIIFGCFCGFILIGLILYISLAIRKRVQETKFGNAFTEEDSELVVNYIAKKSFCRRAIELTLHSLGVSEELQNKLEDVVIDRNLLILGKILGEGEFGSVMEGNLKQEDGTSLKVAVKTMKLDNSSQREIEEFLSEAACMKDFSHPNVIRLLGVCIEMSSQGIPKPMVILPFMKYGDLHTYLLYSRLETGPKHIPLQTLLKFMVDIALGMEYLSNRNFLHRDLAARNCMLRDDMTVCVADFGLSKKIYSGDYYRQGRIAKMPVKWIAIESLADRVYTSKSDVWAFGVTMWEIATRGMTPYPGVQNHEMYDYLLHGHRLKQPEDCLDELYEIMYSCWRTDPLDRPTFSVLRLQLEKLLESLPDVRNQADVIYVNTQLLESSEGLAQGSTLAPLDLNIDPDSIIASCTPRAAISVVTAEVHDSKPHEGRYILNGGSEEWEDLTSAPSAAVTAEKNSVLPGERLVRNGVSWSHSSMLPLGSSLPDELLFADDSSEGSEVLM
Experimental: (§1) To evaluate the binding property to the antigen expressed on the cells, the chimeric monoclonal antibodies were analyzed for their binding to human MerTK overexpressed on CHO-K1 cells by FACS. Briefly, human MerTK overexpressing CHO-K1 (CHO-K1-MerTK) cells were firstly incubated with 5-fold serially diluted mAbs starting at 20 nM at 4° C. for 1 hour. After washing with FACS buffer, the PE conjugated anti-human IgG-Fc secondary antibody was added to each well and incubated at 4° C., for 30 mins. The mean fluorescence intensity (MFI) of PE were evaluated by QuantAnalyzer 16.

[2] = molecular target: T1, human MerTK expressed on cells; assay: as above; remark: listed apart in the source
Experimental: as §1

[3] = molecular target: T1, human MerTK expressed on cells; assay: FACS on SK-MEL-5 cells expressing human MerTK, geometric mean
Experimental: To evaluate the binding properties on MerTK expressed on cells, the chimeric monoclonal antibodies were analyzed for their binding to human melanoma cell line SK-MEL-5 expressing MerTK by FACS analysis. Briefly, SK-MEL-5 cells were firstly incubated with 5-fold serially diluted chimeric mAbs starting at 20 nM at 4° C. for 30 mins. After washing by FACS buffer, the PE conjugated anti-human IgG secondary antibody was incubated with the cell-antibody complex in the wells at 4° C. for 30 mins to detect the antibodies those bound to the cells. The MFI of PE was evaluated by QuantAnalyzer 16.

[4] = molecular target: T2, Human MerTK-mouse Fc fusion protein (human, UniProt Q12866 21-499, limits assumed); assay: FACS blocking: binding of human MerTK-mouse Fc to Jurkat cells overexpressing human Gas6, MFI (AF488)
T2 construct: also called hMerTK; Human MerTK-mouse Fe fusion protein
T2 sequence (looked up): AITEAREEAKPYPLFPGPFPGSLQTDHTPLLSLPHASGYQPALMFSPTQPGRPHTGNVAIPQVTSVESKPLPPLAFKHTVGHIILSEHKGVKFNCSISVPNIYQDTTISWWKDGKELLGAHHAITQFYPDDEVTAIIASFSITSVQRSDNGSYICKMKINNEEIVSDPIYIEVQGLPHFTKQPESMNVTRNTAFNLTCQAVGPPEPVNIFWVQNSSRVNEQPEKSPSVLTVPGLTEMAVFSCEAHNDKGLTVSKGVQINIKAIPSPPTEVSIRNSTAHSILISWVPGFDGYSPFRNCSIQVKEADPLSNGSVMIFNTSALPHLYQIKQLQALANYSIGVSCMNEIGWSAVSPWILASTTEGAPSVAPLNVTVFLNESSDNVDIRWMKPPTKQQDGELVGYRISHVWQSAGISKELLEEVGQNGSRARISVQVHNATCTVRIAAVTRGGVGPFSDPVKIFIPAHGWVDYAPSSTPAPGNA
Experimental: (§2) To evaluate the blocking effects of anti-hMerTK mAbs on hMerTK binding to its ligand hGas6, a receptor blocking assay was set-up. Briefly, Jurkat cells engineered to overexpress human Gas6 were added to the 96-well microplates at a density of 5×10⁴ cells per well. Human MerTK-mouse Fe fusion protein (50 μL/well, […]) and the MerTK chimeric antibodies with a 3-fold serial dilution starting from 120 nM at a volume of 50 μL were added to the 96-well plates and incubated at 4° C. for 30 mins. After washing with FACS buffer, the plates were incubated with diluted Alex Fluor 488 conjugated goat anti-mouse IgG antibody for 30 mins at 4′C. After washing, the plates were analyzed by QuantAnalyzer 16.

[5] = molecular target: T2, Human MerTK-mouse Fc fusion protein; assay: as above; remark: listed apart in the source
Experimental: as §2

EC50 [1]: 0.17 nM
Top [1]: 5920 MFI (PE)
EC50 [2]: 0.16 nM
Top [2]: 4950 MFI (PE)
EC50 [3]: 0.092 nM
Top [3]: 4520 Geometric Mean
IC50 [4]: 0.856 nM
IC50 [5]: 0.836 nM
B1: h13B4.v16 benchmark antibody (antibody, V domains shown)
VH: EVQLVESGEGLVQPGGSLRLSCAASGFSLSSYAMGWVRQAPGKGLEYVGIINSYGNTYYANWAKGRFTISRDNSKNTVYLQMGSLRAEDMAVYYCARDPGVSSNLWGRGTLVTVSS
VL: DIQMTQSPSTLSASVGDRVTITCQASQNIYSGLAWYQQKPGKAPKLLIYGASKLASGVPSRFSGSGSGTEFTLTISSLQPDDFATYYCQATYYSSNSVAFGGGTKVEIK

EC50 [1]: 0.12 nM
Top [1]: 7290 MFI (PE)
EC50 [3]: 0.053 nM
Top [3]: 4790 Geometric Mean
IC50 [4]: 0.824 nM
B2: 252H9D5 chimeric monoclonal antibody (antibody, V domains shown)
VH: QVTLRESGPGILQPSQTLSLTCSFSGFSLNTFGMGVGWIRQSSGKGLKWLAHIWWDDDKFYNPALKSRLTISKDTSKNQVFLKIANVDTTDTATYYCARIEGGLPYYYDYWGQGTPLIVSS
VL: DIVMTQSQKIMSTSVGDRISVTCKASQIVGTNVVWYQQKPGQSPKALIYSTSYRYSGVPDRFTGSRSGTDFTLTISNVQSEDLANYFCQQYNSYPFTFGSGTKLEIK
